A protein production outcome set (Wang et al. 2014)

Test: label from the status in PepcDB records

MNNNDLFQASRRRFLAQLGGLTVAGMLGPSLLTPRRATAAQAATDAVISKEGILTGSHWGAIRATVKDGRFVAAKPFELDKYPSKMIAGLPDHVHNAARIRYPMVRVDWLRKRHLSDTSQRGDNRFVRVSWDEALDMFYEELERVQKTHGPSALLTASGWQSTGMFHNASGMLAKAIALHGNSVGTGGDYSTGAAQVILPRVVGSMEVYEQQTSWPLVLQNSKTIVLWGSDLLKNQQANWWCPDHDVYEYYAQLKAKVAAGEIEVISIDPVVTSTHEYLGREHVKHIAVNPQTDVPLQLALAHTLYSENLYDKNFLANYCVGFEQFLPYLLGEKDGQPKDAAWAEKLTGIDAETIRGLARQMAANRTQIIAGWCVQRMQHGEQWAWMIVVLAAMLGQIGLPGGGFGFGWHYNGAGTPGRKGVILSGFSGSTSIPPVHDNSDYKGYSSTIPIARFIDAILEPGKVINWNGKSVKLPPLKMCIFAGTNPFHRHQQINRIIEGLRKLETVIAIDNQWTSTCRFADIVLPATTQFERNDLDQYGNHSNRGIIAMKQVVPPQFEARNDFDIFRELCRRFNREEAFTEGLDEMGWLKRIWQEGVQQGKGRGVHLPAFDDFWNNKEYVEFDHPQMFVRHQAFREDPDLEPLGTPSGLIEIYSKTIADMNYDDCQGHPMWFEKIERSHGGPGSQKYPLHLQSVHPDFRLHSQLCESETLRQQYTVAGKEPVFINPQDASARGIRNGDVVRVFNARGQVLAGAVVSDRYAPGVARIHEGAWYDPDKGGEPGALCKYGNPNVLTIDIGTSQLAQATSAHTTLVEIEKYNGTVEQVTAFNGPVEMVAQCEYVPASQVKS
protein production: failed

MAAGALPAREPGLLKPAVLWLLLLAPLFFSTYGFATWVTAQRDDVGSMVFDWERHMPFWAWTIVPYWSIDLLYGFSLLLPRSRDELKRHALRLLTAQVIAVSCFLLWPLSFTFSRPELDGVFGWLFAVLAGFDKPFNQAPSLHIALLVVLWVCYARHTQGFWRWLVHGWFALIGVSVLSTYQHHFIDVPTGALAGWLCVWLWPLDRPSPLFSARAAQDPKRRQLALRYGLGATLFAGAAFAWGGAALWLIWPAVALLLVALNYALLGAEGFQKRQDGSLSPAARWLLAPYLAAAWINSRLWTRKHPQPDPVVDNVWLGRLPTPAELKDSPFDAVLDLCAELSLDSRGLRAYQSLPVLDLCAPSAEQCLAAAHAIERLRQQGPLLVCCALGYSRSATAIAAWLLHSGRAATVDAAIVQIQRARPQIVLHPAHRQALQALSSAGRTAHVH
protein production: failed

MAAWCSPRWLRVAVGTPRLPAAAGRGVQQPQGGVVAASLCRKLCVSAFGLSMGAHGPRALLTLRPGVRLTGTKSFPFVCTASFHTSASLAKDDYYQILGVPRNASQKDIKKAYYQLAKKYHPDTNKDDPKAKEKFSQLAEAYEVLSDEVKRKQYDAYGSAGFDPGASSSGQGYWRGGPSVDPEELFRKIFGEFSSSPFGDFQNVFDQPQEYIMELTFNQAAKGVNKEFTVNIMDTCERCDGKGNEPGTKVQHCHYCSGSGMETINTGPFVMRSTCRRCGGRGSIITNPCVVCRGAGQAKQKKRVTVPVPAGVEDGQTVRMPVGKREIFVTFRVQKSPVFRRDGADIHSDLFISIAQAILGGTAKAQGLYETINVTIPAGIQTDQKIRLTGKGIPRINSYGYGDHYIHIKIRVPKRLSSRQQNLILSYAEDETDVEGTVNGVTHTSTGGRTMDSSTGSKDRREAGEDNEGFLSKLKKIFTS
protein production: failed

MTNLVDKAAHSFATQNVVFQTLATASGKLVGVVTLNVEKALNALDLDMVRAMTVQLNLWKKDPLIACVVLDGSGEKAFCAGGDVRALYHASVAAKGQVTEVAKVFFEEEYRLDYLLHTYGKPVLVWGDGIVMGGGLGLMAGASHKVVTETSRIAMPEVTIGLYPDVGGSYFLNRMPGKMGLFLGLTAYHMNAADACYVGLADHYLNRDDKELMFDAMATLDWSDSPALNHQRLDTMINELSNQVDIPKGDSVLAESQEMIDRLMAGSLTDIVTRMSTLSTDEAWLSKACATMLAGSPISWHLAYIQTQLGTKLSLAQCFKWELTVSVNVCAKGDFCEGVRALLIDKDKQPKWQFADVQSVPNSVIEDILTSPWGEEHPLSQLS
protein production: not failed

RFHNDGEALLAAFLAGDLAGIGAMTPEPAALEPARRLRRFYVRPDMRRRGVATALASALIHEGFDSVRLLTVNARAADAAAPFWEAQGFEPDTIGPWTH
protein production: failed

MGTAWNYPDLGSKNPMSGMVQSETAVIGGAGNVGMGIVAALLDAGMPTVVIGRDAAKLDALRAQHGHSPLLDIVQGSVADDASARRLATELAQRHRPLGAVIASLGSPPKAGRLLDRPVAVLRRRLERDVLPHLAAARHLLPLLAEADGGGRYLLLGSPCALRAWSAHGDRSVAASATRMLAQVLHEEAKPLGVRVQLLSVEQPVCTPGRAKDACPEWIRAVDVGRAAVSLIAGPGQPGQAIVTVSRRPHAAPSASRLAGLHVSIPTREISP
protein production: failed

MIILKGNKIDYLFLLFGLLGLSTMIYSYLSFSLDVISRNSCTINSVISCSSVENSIYSTFLGIKLYYYGMAYFSAIIVLSLLVVKGTVKNIIGYVISLLSIIASIISVYLIYTEIFLLGHMCIVCTLAHVSIFSVLILSVIKFKV
protein production: failed

MNLTKVKGNTFFIKGGTNTGIYVFEDNTALMIDPGLCGSRPRRVNKVLDENNIQVRYIINTHGHDDHYGACNQFKEYYKDVCIMSSEYDKLYIENPELFSKYIVGGKSNVFMDNILKNKMLDDIKIDKSIEAGKFELNNEMFDIIEFQGHTPGSIAVLTKDNVIFVGDLLIGDEILSKYDFLFLYDIQEQINSLEKLKNIDFEYLVLGHGKQVISKEDSYKLIEKHLNALKKYLYQIRELLVEPKSLEILLKNIINNNNLSNNYKEYHFFKSSLVSVISYLVDLEEIGYILENGELLYYTKTK
protein production: failed

MYFLLNLVGLIVIMAVVFLCSPQKKKIKWRPIITLIVLELLITWFMLGTKVGSWAIGKIGDFFTWLIACASDGIAFAFPSVMANETVDFFFSALLPIIFIVTFFDILTYFGILPWLIDKIGWVISKASRLPKLESFFSIQMMFLGNTEALAVIRQQLTVLSNNRLLTFGLMSMSSISGSIIGSYLSMVPATYVFTAIPLNCLNALIIANLLNPVHVPEDEDIIYTPPKEEKKDFFSTISNSMLVGMNMVIVILAMVIGYVALTSAVNGILGVFVHGLTNQTIFAYLFSPFAFLLGLPVHDAMYVAQLMGMKLATNEFVAMLDLKNNLKSLPPHTVAVATTFLTSFANFSTVGMIYGTYNSILDGEKSTVIGRNVWKLLVSGIAVSLLSAAIVGLFVW
protein production: failed

MKTTALRLYGKRDLRLETFDLPEMQEDEILATVVTDSLCLSSWKEANLGENHKKVPDDVATNPIIIGHEFCGDILAVGKKWQHKFQPGQRYVIQANLQLPDRPDCPGYSFPWVGGEATHVVIPNEVMEQDCLLAYDGETYFEGSLVEPLSCVIGAFNANYHLQEGSYNHTMGIRPQGRMLILGGTGPMGLLAIDYALHGPVNPSQLVITDTDNDKLSYARKHYPSEPQTLIHYLNAADAAFDTLMALSGGHGFDDIFVFVPNEGLVTLASSLLATDGCLNFFAGPQDKHFSAPINFYDVHYAFTHYVGTSGGNTDDMRAAVKLIEEKKVQAAKVVTHILGLNAAGETTLELPAVGGGKKLVYTGKYLPLTSLTQIQDQALAAILARHQGIWSGEAEQYLLTHAEAISHD
protein production: failed

MRGIAIIFIVLGHSIYNSGEGFPVLLENLLRGGTALFVFISGYFFHRIFYKDFDYGKFMKNKVQNVLYPFLFVSIVGLFCLSLRWVFMEHQSLEQVLLSIFYTVRNGYILYPHWYIPFIMAVFLFSPVFLWFIRCSQQMRWTLFVLSCVVAILLHRPIGNVNFIHSVVYYLPFYLIGILYSQDEHIVTRYGSILSALAGIFLVVSLVEQSYIVQHVGNYHKAPFEYNGIDWQFIQKLSLCVLVLNFCDWLSQRSRLPWLIETAEMSFAIFFIHPLFDMLFNTTATIFRYRFPPDSWVTSILFSFGIFLFLMVSSMMTARLIKKRLGNRSRLFIGW
protein production: failed

MSSSTNDYNDGNNNGVYPLSLYLSSLSGHQDIIHNPYNHQLKASPGHMVSAVPESLIDYMAFKSNNVVNQQGFEFPEVSKEIKKVVKKDRHSKIQTAQGIRDRRVRLSIGIARQFFDLQDMLGFDKASKTLDWLLKKSRKAIKEVVQAKNLNNDDEDFGNIGGDVEQEEEKEEDDNGDKSFVYGLSPGYGEEEVVCEATKAGIRKKKSELRNISSKGLGAKARGKAKERTKEMMAYDNPETASDITQSEIMDPFKRSIVFNEGEDMTHLFYKEPIEEFDNQESILTNMTLPTKMGQSYNQNNGILMLVDQSSSSNYNTFLPQNLDYSYDQNPFHDQTLYVVTDKNFPKGKVWIQDSFVN
protein production: failed

MTTNPYTGEREAGKSAIGAGLGSLVGAGIGALSSSKKDRGKGALIGAAAGAALGGGVGYYMDVQEANVRDKMRGTGVSVTRSGDNIILNMPNNVTFDSSSATLKPAGANTLTGVAMVLKEYPKTAVNVIGYTDSTGGHDLNMRLSQQRADSVASALITQGVDASRIRTQGLGPANPIASNSTAEGKAQNRRVEITLSPLLEHHHHHH
protein production: not failed

MKKAMLLIKNGKILTMTGVNYDSGSVLIDNGKIIKVGENIDVDESCEIIDADGFWVMPGIIEAHCHVGIQEEKRGFEGNDCNEMTNPVTPYLRALDGINPMDSAFYTALTAGITGIMVGPGSANVVGGQWMFLKTYGRAIDKMVVLQPSAMKIAFGENPKANYDKKNMMPSTRIAIAAMLREELFEAQQYYEKRKNAEKSGDSFNKEFRKECWVPVFDKKIPLKAHVHRADDILTAIRIAKEFNLNLTLDHCTEGHLVAKEIKESGFPAIVGPTLTSRNKIETQYADFKTAGILHNEGVKVAITTDHPVTRIQDLLICAGLAAKEGLGIEEGLKAITINPAEICNVANRVGSIEVNKDADIAIFDGNPMETFTKTMYTIINGEIVYSLKDKNY
protein production: failed

MFWIVLIVILLLALAGLFFVRAQSEREWMREVSAWQEKKGEKQAELPEIKDGMPDFPEFSLMLFHAVKTAVYWLFVGVVRFCRNYLAHESEPDRPVPPASANRADVPTASDGYSDSGNGTEEAETEAAEAAEEEAADTEDIATAVIDNRRIPFDRSIAEGLMQSESKTSPVRPVFKEITLEEATRALSSAALRETKKRYIDAFEKNGTAVPKVRVSDTPMEGLQIIGLDDPVLQRTYSRMFDADKEAFSESADYGFEPYFEKQHPSAFSAVKAENARNAPFRRHAGQEKGQAEAKSPDVSQGQSVSDGTAVRDARRRVSVNLKEPNKATVSAEARISRLIPESRTVVGKRDVEMPSETENVFTETVSSVGYGGPVYDEAADIHIEEPAAPDAWVVEPPEVPEVAVPEIDILPPPPVSEIYNRTYEPPAGFEQAQRSRIAETDHLAADVLNGGWQEETAAIADDGSEGAAERSSGQYLSETEAFGHDSQAVCPFEDVPSERPSCRVSDTEADEGAFQSEETGAVSEHLPTTDLLLPPLFNPEATQTEEELLENSITIEEKLAEFKVKVKVVDSYSGPVITRYEIEPDVGVRGNSVLNLEKDLARSLGVASIRVVETIPGKTCMGLELPNPKRQMIRLSEIFNSPEFAESKSKLTLALGQDITGQPVVTDLGKAPHLLVAGTTGSGKSVGVNAMILSMLFKAAPEDVRMIMIDPKMLELSIYEGITHLLAPVVTDMKLAANALNWCVNEMEKRYRLMSFMGVRNLAGFNQKIAEAAARGEKIGNPFSLTPDDPEPLEKLPFIVVVVDEFADLMMTAGKKIEELIARLAQKARAAGIHLILATQRPSVDVITGLIKANIPTRIAFQVSSKIDSRTILDQMGAENLLGQGDMLFLPPGTAYPQRVHGAFASDEEVHRVVEYLKQFGEPDYVDDILSGGGSEELPGIGRSGDGETDPMYDEAVSVVLKTRKASISGVQRALRIGYNRAARLIDQMEAEGIVSAPEHNGNRTILVPLDNA
protein production: failed

MSLIERVRTDLYRIPLPTRLTDSTHGAMMDFELITVRIEDSDGATGLGYTYTVNHGGAAVATMVDKDLRGCLLGADAEQIEKIWQSMWWRLHYAGRGGHATSAISAVDIALWDLKGIRARTPLWKLFGGYDPVVPVYAGGIDLELPVADLKTQADRFLAGGFRAIKMKVGRPDLKEDVDRVSALREHLGDSFPLMVDANMKWTVDGAIRAARALAPFDLHWIEEPTIPDDLVGNARIVRESGHTIAGGENLHTLYDFHNAVRAGSLTLPEPDVSNIGGYTTFRKVAALAEANNMLLTSHGVHDLTVHALASVPHRTYMEAHGFGLHAYMAEPMAVTDGCVSAPDRPGHGVVLDFERLGRLAVGEGHHHHHH
protein production: not failed
